{"source": "paper PMC7083852", "about": "“Ultrafast in-gel detection by fluorescent super-chelator probes with HisQuick-PAGE” (Communications Biology, 2020)", "binders": {"B1": {"name": "Thermus thermophilus multidrug-resistance protein B (TmrB) (natural protein, UniProt Q72J04 1-578, looked up)", "chain": "MTGRSAAPLLRRLWPYVGRYRWRYLWAVLAGLVSIFFFVLTPYFLRLAVDAVQAGRGFGVYALAIVASAALSGLLSYAMRRLAVVASRQVEYDLRRDLLHHLLTLDRDFYHKHRVGDLMNRLNTDLSAVREMVGPGILMGSRLSFLVLLAFLSMYAVNARLAFYLTLILPGIFLAMRFLLRLIDRRYREAQEVFDRISTLAQEAFSGIRVVKGYALERRMVAWFQDLNRLYVEKSLALARVEGPLHALLGFLMGFAFLTVLWAGGAMVVRGELSVGELVQFNAYLAQLTWPILGLGWVMALYQRGLTSLRRLFELLDEKPAIRDEDPLPLALEDLSGEVRFEGVGLKRDGRWLLRGLTLTIPEGMTLGITGRTGSGKSLLAALVPRLLDPSEGRVYVGGHEARRIPLAVLRKAVGVAPQEPFLFSETILENIAFGLDEVDRERVEWAARLAGIHEEILAFPKGYETVLGERGITLSGGQRQRVALARALAKRPKILILDDALSAVDAETEARILQGLKTVLGKQTTLLISHRTAALRHADWIIVLDGGRIVEEGTHESLLQAGGLYAEMDRLQKEVEA", "notes": "Thermus thermophilus multidrug-resistance protein B (TmrB), subunit of the heterodimeric ABC transporter TmrAB; Produced and purified together with TmrA as the heterodimer TmrAB; also called subunit of TmrAB"}}, "target": "T1, Thermus thermophilus multidrug-resistance protein A (TmrA), C-terminal His10-tag (Thermus thermophilus, UniProt Q72J05 1-600)", "T1 construct": "Thermus thermophilus multidrug-resistance protein A (TmrA), subunit of the heterodimeric ABC transporter TmrAB; Produced and purified together with TmrB as the heterodimer TmrAB; also called His10-tagged subunit of TmrAB; not shown: His10, C-terminal, kept", "T1 sequence (looked up)": "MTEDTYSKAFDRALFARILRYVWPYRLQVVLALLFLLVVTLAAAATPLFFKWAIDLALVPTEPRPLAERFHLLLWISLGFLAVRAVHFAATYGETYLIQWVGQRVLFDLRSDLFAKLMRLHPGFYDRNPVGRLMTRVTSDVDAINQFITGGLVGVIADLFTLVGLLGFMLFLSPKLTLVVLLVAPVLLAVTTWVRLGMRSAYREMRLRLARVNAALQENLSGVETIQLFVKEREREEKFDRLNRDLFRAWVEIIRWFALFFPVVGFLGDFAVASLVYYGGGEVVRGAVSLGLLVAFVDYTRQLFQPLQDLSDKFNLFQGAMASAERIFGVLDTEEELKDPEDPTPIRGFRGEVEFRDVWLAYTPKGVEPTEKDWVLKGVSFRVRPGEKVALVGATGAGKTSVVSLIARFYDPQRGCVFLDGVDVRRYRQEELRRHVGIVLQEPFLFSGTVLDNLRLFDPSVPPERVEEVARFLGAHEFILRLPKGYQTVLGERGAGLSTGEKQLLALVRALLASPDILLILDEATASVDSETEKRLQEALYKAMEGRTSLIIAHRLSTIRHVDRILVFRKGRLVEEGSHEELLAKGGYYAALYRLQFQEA", "test": "native gel or EMSA; blue native PAGE of purified TmrAB (1.3 µg, 500 nM; produced in E. coli and purified as a whole via His10 on TmrA and by SEC) in DDM or reconstituted in MSP1D1 nanodiscs; labelled with tris- or hexaNTA-Alexa647 (450 nM), in-gel fluorescence", "settings": "both partners purified", "data": [{"binder": "B1", "values": [{"measurement": "binding result", "value": "binds"}]}]}
